From patent US6670167B1, “Catalytic domain of the human effector cell cycle checkpoint protein kinase materials and methods for identification of inhibitors thereof” (Agouron Pharmaceuticals, Inc., priority 1999, dated 2003)
Where no end group is shown, it is not given here.

Target: T1, Chk1 kinase (Homo sapiens, UniProt O14757)
T1 construct: 2 (KH289); made in house; host or cells: baculovirus (Bac-to-Bac, pFastBac-Nde) in Hi-5 insect cells
T1 sequence (O14757 1-289): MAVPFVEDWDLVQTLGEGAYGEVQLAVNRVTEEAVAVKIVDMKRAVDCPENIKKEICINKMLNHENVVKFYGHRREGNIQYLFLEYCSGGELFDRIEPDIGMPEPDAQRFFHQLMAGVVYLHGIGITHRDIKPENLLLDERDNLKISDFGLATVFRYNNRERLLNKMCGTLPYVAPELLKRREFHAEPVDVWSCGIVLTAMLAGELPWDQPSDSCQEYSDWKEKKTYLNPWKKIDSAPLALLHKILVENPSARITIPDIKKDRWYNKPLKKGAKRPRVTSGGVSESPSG
Assay: Peptide substrates tested for activity as Chk1 substrates
Assay type: biochemical
Settings: Syntide 2 = 100%
Description: The enzymatic activity of a kinase is measured by its ability to catalyze the transfer of a phosphate residue from a nucleoside triphosphate to an amino acid side chain in a selected protein target. The conversion of ATP to ADP generally accompanies the catalytic reaction. Herein, a synthetic substrate peptide, Syntide-2, having amino acid sequence PLARTLSVAGLPGKK (SEQ ID NO. 11) was utilized. The production of ADP from ATP that accompanies phosphoryl transfer to the substrate was coupled to oxidation of NADH using phosphoenolpyruvate (PEP) through the actions of pyruvate kinase (PK) and lactic dehydrogenase (LDH). The oxidation of NADH was monitored by following the decrease of absorbance at 340 nm (e340=6.22 cm−1 mM−1) using a HP8452 spectrophotometer. Typical reaction solutions contained: 4 mM PEP, 0.15 mM NADH, 28 units of LDH/mL, 16 units of PK/mL, 3 mM DTT, 0.125 mM Syntide-2, 0.15 mM ATP and 25 mM MgCl2 in 50 mM TRIS pH 7.5; 400 mM NaCl. Assays were initiated with 10 nM of kinase domain of Chk1, KH289. Ki values were determined by measuring initial enzyme activity in the presence of varying concentrations of inhibitors. The data were analyzed using Enzyme Kinetic and Kaleidagraph software.
The following substrates were tested for peptide content and activity:
As described in detail below, an aspect of the invention involves a nonradioactive ELISA based assay suitable for high throughput screening (HTS). The development of the ELISA based CHK1 kinase HTS assay was first initiated with a monoclonal anti-phosphoserine antibody called Clone PSR-45, supplied by Sigma. New Chk peptide substrates, analogues of Syntide2, were synthesized to validate this assay. Biotin-Syntide-2 (SEQ ID NO. 12), and N-terminus acetylated Syntide-2 (SEQ ID NO. 13) and the expected peptide products after CHK phosphorylation, serine phosphorylated Syntide 2 (SEQ ID NO. 15), and serine phosphorylated biotin-Syntide 2 (SEQ ID NO. 16) were synthesized for assay development. […]

| Substance | Activity (peptide substrate) [%] |
| --- | --- |
| Ac-PLARTLSVAGLPG-AGAGAGAK (Ac-PLARTLSVAGLPGAGAGAGAK) [Syntide 4, N-terminus acetylated analogue of Syntide 2] | 72 |
| KAGAG-PLARTLSVAGLPG-Biotin-K [Syntide 3] | 67 |
| PLARTLSVAGLPGKK [Syntide 2, synthetic substrate peptide, reference compound] | 100 |
